The text below walks through data of PMC10716038, “Talin and kindlin use integrin tail allostery and direct binding to activate integrins” (Nature Structural & Molecular Biology, 2023).

B1: talin-1 head domain (THD1) [not stated] / ATTO 488-labelled β3-CT (488–β3-CT) [modified: ATTO 488 at the N terminus; ATTO 488 at the N terminus] [not stated] (parent)
chain 1: MVALSLKISIGNVVKTMQFEPSTMVYDACRMIRERIPEALAGPPNDFGLFLSDDDPKKGIWLEAGKALDYYMLRNGDTMEYRKKQRPLKIRMLDGTVKTIMVDDSKTVTDMLMTICARIGITNHDEYSLVRELMEEKKDEGTGTLRKDKTLLRDEKKMEKLKQKLHTDDELNWLDHGRTLREQGVEEHETLLLRRKFFYSDQNVDSRDPVQLNLLYVQARDDILNGSHPVSFDKACEFAGFQCQIQFGPHNEQKHKAGFLDLKDFLPKEYVKQKGERKIFQAHKNCGQMSEIEAKVRYVKLARSLKTYGVSFFLVKEKMKGKNKLVPRLLGITKECVMRVDEKTKEVIQEWSLTNIKRWAASPKSFTLDFGDYQDGYYSVQTTEGEQIAQLIAGYIDIILKKKKS
chain 2: KLLITIHDRKEFAKFEEERARAKWDTANNPLYKEATSTFTNITYRGT

The variants in this assay derive from B1. As to the kind of experiment: MST. Particulars: with ATTO 488-labelled β3-CT (488–β3-CT) [modified: ATTO 488 at the N terminus, 30-40 µM KIND2, n = 2, read off a plot.
For chain 1 K404A, the screen value was 0.75.
Turning to chain 1 K401A, the screen value amounted to 0.55.
Regarding chain 1 K403A, the screen value stood at 0.5.
Regarding chain 1 K403E, the screen value came out at 0.57.
In the case of chain 1 I398A, the screen value was determined as 0.65.
Turning to chain 1 Y395A, the screen value amounted to 0.68.
The figure for chain 1 L400A is 1.1; for chain 1 I396A it is 1; for chain 1 I399A it is 0.93.
The figure for chain 1 K402A is 0.45.
In the case of chain 1 K402A K403A, the screen value is 0.7.
